Source: the nanobody polyreactivity screen of Harvey et al. (2022)

Test: yeast display, Sf9 membrane polyspecificity reagent, FACS + sequencing; frameworks hold sequencing errors
In short: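 Sorting gates, low and high (top ~1%), were placed on anti-HA fluorescence to track expression and on streptavidin fluorescence to track reagent binding. A clone's polyreactivity label is taken from the gate it came out of. The reagent was 10% biotinylated, detergent-solubilized Sf9 membrane, applied for 1 hour at 4 °C to galactose-induced yeast display cells.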

| Sequence | polyreactivity (PSR sort gate) |
| --- | --- |
| QVQLVESGGGLVQAGGSLRLSCAASGRIFRLYAMGWYSQEPGKDRELVATITSGGTYYADSVKGRFTISRDNAKNTVYLQMISLSPEDTAVYYCTARRRLRYDFWGQGTQVTVSS | low polyreactivity |
| QVQLVESGGGLVQAGGSLRLSCAASGRIFRPYAMGWYRQAPGKERELVAAISVSGVITYYADSVKGRFTISRDNAKNTVYLQMISLKPEDTAVYYCATDYTPRRWGRLYDYWGQGTQVTVSS | low polyreactivity |
| QVQLVESGGGLVQAGGSLRLSCAASGRIFRPYAMGWYRQAPGKERELVATITGSGGTTYYADSVKGRFTISRDNAKNSVYFQMNSLKPEDTAVYYCNVDPRSDIIPMDYWGQGTQVTVSS | low polyreactivity |
| QVQLVESGGGLVQAGGSLRLSCAASGRIFRPYTMGWYRQAPGKERELVAANSWRGGSTYYADSVKVRFTISLDNAKNTVYLLINSLKPEATAVYYCATYVKVIRTAGTRPKMGYWGQVTQVTVSS | high polyreactivity |
| QVQLVESGGGLVQAGGSLRLSCAASGRIFRRNTMGWSRQAPGKERELVAAITSSGGSTYADSVKGRFTISRDNAKKTVYLQMNSLKPEDTAVYYCATYVAYHRGYRTYDHWGQGTQVTVSS | low polyreactivity |
| QVQLVESGGGLVQAGGSLRLSCAASGRIFRRNTMGWYRQAPGKERELVAAITSSGGSTYADSVKGRFTISRDNAKNTVYLQMNSLKPEDTAVYYCAAVRLYRYDYWGQGTQVTVSS | low polyreactivity |
| QVQLVESGGGLVQAGGSLRLSCAASGRIFRRYAMGWYRQAPGKEREFVAAITDGSTYYADSVKGRFTISRDNAKNTVYLQMNSLKPEDTAVYYCATQYGWSYSRRFYYWGQGTQVTVSS | high polyreactivity |
| QVQLVESGGGLVQAGGSLRLSCAASGRIFRRYAMGWYRQAPGKERELVAAITRSGGSTYYADSVKGRFTISRDNAKNTVYLQMNSLKPEDTAVYYCAARQVGRYYYLSRYYYWGQGTQVTVSS | high polyreactivity |
| QVQLVESGGGLVQAGGSLRLSCAASGRIFRRYAMGWYRQAPGTERELVAAITASGGITYYADSVKGRFTISRDNAKNTVYLQMNSLKPEDTAVYYCAARGSSGYDYWGQGTQVTVSS | high polyreactivity |
| QVQLVESGGGLVQAGGSLRLSCAASGRIFRSYAMGWYREAPGKERELVAAISSGGSTNYADSVKGRFTISRDNAKNTVYLQLNSLKPEDTAVYYCAAELWAYTWYWHSDYWGQGTQVTVSS | low polyreactivity |
| QVQLVESGGGLVQAGGSLRLSCAASGRIFRSYAMGWYRQAPGKERELVAAISRSGGSTYYADSVKGRFTISRDNAKNTVYLQMNSLKPEDTAVYYCAGVYTYPLGYYHYTYDYWGQGTQVTVSS | low polyreactivity |
| QVQLVESGGGLVQAGGSLRLSCAASGRIFRSYAMGWYRQAPGKERELVAAITWSGGSTYYADSVKGRFTISRDNAKNTVYLQMHSLKPEDTAVYYCARVVTKKYSHTGYEYWGQGTQVTVSS | high polyreactivity |
| QVQLVESGGGLVQAGGSLRLSCAASGRIFRSYAMGWYRQAPGKERELVAAMTWGGGRTYYADSVKGRFTISRDNAKNTVYLQMNSLKPEDTAVYYCNTLAYPYYRGSKYDYWGQGTQVTVSS | high polyreactivity |
| QVQLVESGGGLVQAGGSLRLSCAASGRIFRTNAMGWYRQAPGKERELVAAISDSGADTSYADSVKGRFTISRDNAKNTVYLQMNSLKPEDTAVYYCNRGRVYYRYLKDYDYWGQGTQVTVSS | low polyreactivity |
| QVQLVESGGGLVQAGGSLRLSCAASGRIFRTYALGWYRQAPGKERELVAAINSGGTTYYADSVKGRFTISRDNAKNTVYLQLNSLKPEDTAVYYCNAEYYYAFLRLWYDYWGQGTQVTVSS | high polyreactivity |
| QVQLVESGGGLVQAGGSLRLSCAASGRIFRTYAMGWYRQAPGKERELVAAINSVDRTYYADSVKGRFTISRDNAKNTVYLQMNSLKPEDTAVYYCAARGYRGHDEFGYWGQGTQVTVSS | high polyreactivity |
| QVQLVESGGGLVQAGGSLRLSCAASGRIFRTYAMGWYRQAPGKERELVAAIRSGGSTKYADSVKGRFTISRDNAKNTVYLQMNSLKPEDTAVYYCAAAVLGRYSAGDGYWGQGTQVTVSS | low polyreactivity |
